Substrate in this series: CC(=O)NCCCC[C@H](NC(=O)[C@H](CCCNC(=N)N)NC(=O)[C@H](C)NC(=O)[C@@H](N)[C@@H](C)O)C(=O)N[C@@H](CO)C(=O)N[C@H](C(=O)NCC(=O)O)[C@@H](C)O
Kind of series: Sirtuin assay kit (PNC1-OPT) with hSIRT1 enzyme. The class given is biochemical, human. The conditions noted are these: other: kit protocol, Experiment 2 mastermix; pH 8.0; 37.0 °C. As for the experimental part:
Kit contents are generally stored at −20° C. Modifications or variations in volumes or amounts of components described below are compatible with kits and assays described herein. • 1) Assay Buffer: 2 tubes with 1 mL each of 10× Assay Buffer. Dilute to 1× with ddH20 prior to use. • 2) Non-tagged Peptide Substrate: 1 tube with 140 uL of 5 mM H3K9ac substrate (TARK(ac)STG)) (SEQ ID NO:23). This is a sample substrate only; any substrate may be used in this assay. • 3) β-NAD: a) 1 tube with 450 uL of 10 mM B-NAD, and b) 1 tube with 50 uL of 100 mM B-NAD. In some instances, it is preferable to keep β-NAD in concentrated aliquot form, and dilute it prior to use. • 4) hSIRT1 Enzyme: 1 tube with 400 uL of 1.1 ug/uL full-length human SIRT1 enzyme. • 5) yPNC1 Enzyme: 1 tube with 200 uL of 2 ug/uL yeast PNC1 enzyme • 6) Developing Reagent: 2 vials with 10 mL each 1× Developer (10 mM OPT/10 mM DTT in 100% EtOH). Minimize exposure to light as outlined in the procedure. […]
In some instances, when adding the OPT Developer it is advisable to work in a dark or dimly lit setting. […] Once covered, ambient lighting may be restored. • d) Read the samples. Samples may be transferred to a 96-well plate for reading (do this under dim light). Read the fluorescence on a fluorometer with filters set to excitation ˜420 nm, and emission ˜460 nm. […]

B1: full-length human SIRT1 enzyme (Homo sapiens) (protein)
chain: MADEAALALQPGGSPSAAGADREAASSPAGEPLRKRPRRDGPGLERSPGEPGGAAPEREVPAAARGCPGAAAAALWREAEAEAAAAGGEQEAQATAAAGEGDNGPGLQGPSREPPLADNLYDEDDDDEGEEEEEAAAAAIGYRDNLLFGDEIITNGFHSCESDEEDRASHASSSDWTPRPRIGPYTFVQQHLMIGTDPRTILKDLLPETIPPPELDDMTLWQIVINILSEPPKRKKRKDINTIEDAVKLLQECKKIIVLTGAGVSVSCGIPDFRSRDGIYARLAVDFPDLPDPQAMFDIEYFRKDPRPFFKFAKEIYPGQFQPSLCHKFIALSDKEGKLLRNYTQNIDTLEQVAGIQRIIQCHGSFATASCLICKYKVDCEAVRGDIFNQVVPRCPRCPADEPLAIMKPEIVFFGENLPEQFHRAMKYDKDEVDLLIVIGSSLKVRPVALIPSSIPHEVPQILINREPLPHLHFDVELLGDCDVIINELCHRLGGEYAKLCCNPVKLSEITEKPPRTQKELAYLSELPPTPLHVSEDSSSPERTSPPDSSVIVTLLDQAAKSNDDLDVSESKGCMEEKPQEVQTSRNVESIAEQMENPDLKNVGSSTGEKNERTSVAGTVRKCWPNRVAKEQISRRLDGNQYLFLPPNRYIFHGAEVYSDSEDDVLSSSSCGSNSDSGTCQSPSLEEPMEDESEIEEFYNGLEDEPDVPERAGGAGFGTDGDDQEAINEAISVKQEVTDMNYPSNKS
notes: 1.1 ug/uL full-length human SIRT1 enzyme
On to B1, for which the Km stood at 50 µM.

By Km is commonly meant the substrate concentration at which the rate is half of its maximum.

The values above are taken from patent US20120164670A1, “METHODS AND KITS FOR MEASURING ENZYME ACTIVITY” (President and Fellows of Harvard College, priority 2009, published 2012).
